We go through 167 variants from the RNAGym collection of RNA variant scans (doi:10.7554/elife.80360).

B1: CPEB3 Ribozyme (parent)
chain: GGGGGCCACAGCAGAAGCGUUCACGUCGCGGCCCCUGUCAGAUUCUGGUGAAUCUGCGAAUUCUGCUGU

This data set covers variants of B1. Briefly: self-cleavage, relative activity (ratio to wild type); higher = more cleavage; co-transcriptional.
As for G48A U62C, the self-cleavage was found to be 0.952.
For the variant G48A U62G, the self-cleavage is 0.868.
With G48C C63U, the self-cleavage is 0.981.
Regarding G48C C63A, the self-cleavage was found to be 0.931.
As to G47U G48C, the self-cleavage was determined as 1.02.
On to G48U C66A, for which the self-cleavage came out at 0.923.
Regarding G48U C66U, the self-cleavage turned out to be 0.978.
On to G47C U53A, for which the self-cleavage turned out to be 0.967.
G47C U53G: the self-cleavage is 0.911.
With G47C U53C, the self-cleavage turned out to be 0.992.
In the case of G48U A52U, the self-cleavage came out at 0.969.
As for G48U A52G, the self-cleavage was found to be 0.983.
Regarding G48U A52C, the self-cleavage amounted to 0.987.
As for U46G U69C, the figure is 1.07.
For U46G A52U, the self-cleavage stood at 0.981.
For G47A C66G, the self-cleavage worked out at 0.953.
As for G47A C66U, the self-cleavage is 0.959.
With G48U U53G, the self-cleavage was determined as 0.94.
With G48U U53C, the self-cleavage came out at 1.04.
G48C U49C: the self-cleavage came to 0.993.
Turning to G48C U49A, the self-cleavage was 0.976.
For the variant G48C U49G, the self-cleavage was 1.06.
For G47A U67G, the self-cleavage came to 1.06.
Consider G47A U67C, for which the self-cleavage is 0.976.
G47C G56U: the self-cleavage was determined as 1.02.
As for G47C G56C, the figure is 0.92; as for G48U G65C, 0.798; as for G48U G65U, 0.909.
Consider G47U U69A, for which the self-cleavage was determined as 1.02.
Take G47U U69G: the self-cleavage was 1.05.
Consider G47U U69C, for which the self-cleavage was 1.06.
G47A G56U: the self-cleavage came out at 1.01.
For the variant G47A G56A, the self-cleavage turned out to be 1.
For G47C C54G, the self-cleavage worked out at 0.959.
For G47C C54U, the self-cleavage worked out at 0.987.
On to G48U U67C, for which the self-cleavage is 1.
Turning to G48U U67A, the self-cleavage came out at 1.01.
For the variant G48U U67G, the self-cleavage was 1.05.
As for G47C A60U, the figure is 0.562; as for G47C A51C, 1.04.
For the variant U46G A59G, the self-cleavage is 0.965.
For U46G A59U, the self-cleavage is 0.842.
Take G48A G65U: the self-cleavage stood at 0.914.
In the case of G48A G65A, the self-cleavage was found to be 0.992.
Turning to G48A G65C, the self-cleavage amounted to 0.81.
As to G48U A59U, the self-cleavage was 0.881.
With G48U A59C, the self-cleavage came out at 0.739.
G48C A51G: the self-cleavage is 0.995.
Turning to G48C G65C, the self-cleavage worked out at 0.775.
Regarding G48C G65U, the self-cleavage is 0.869.
Regarding G48C G65A, the self-cleavage amounted to 0.926.
For the variant G48A U49C, the self-cleavage is 0.959.
On to G48A U49G, for which the self-cleavage was found to be 1.01.
Consider G48U G56C, for which the self-cleavage is 0.865.
Take G48U G56A: the self-cleavage is 0.945.
As for G48U G56U, the self-cleavage is 0.994.
As for G47U U53C, the self-cleavage came out at 1.02.
Take G47U U53G: the self-cleavage was determined as 0.991.
Regarding G48U A60G, the self-cleavage amounted to 0.979.
Regarding G48U A60C, the self-cleavage is 0.362.
For U49A A51U, the self-cleavage was determined as 1.
The result for G47C G65A reads 0.963; that for G47C G65U, 0.908; that for G47C G65C, 0.726.
As for G48C U53C, the self-cleavage was 0.96.
As for G48C U53G, the self-cleavage is 0.913.
G48U U61A: the self-cleavage is 0.924.
Turning to G48U U61C, the self-cleavage turned out to be 0.905.
As for G47C A52U, the self-cleavage came out at 1.05.
With G47C A52C, the self-cleavage came to 0.946.
For the variant G47C A52G, the self-cleavage is 1.
Take G47C U61A: the self-cleavage is 0.97.
For the variant G47C U61G, the self-cleavage turned out to be 0.937.
Regarding G48A A52C, the self-cleavage is 0.975.
The result for G48A A52G reads 0.989; that for G48A A52U, 0.996; that for G48C U64C, 0.938.
Take G47A A60U: the self-cleavage was 0.475.
Take G47A U64C: the self-cleavage was found to be 0.974.
Regarding G47A U64A, the self-cleavage is 0.958.
In the case of G48U C54G, the self-cleavage came to 1.03.
Take U46G G47U: the self-cleavage is 0.976.
Regarding U46G G47C, the self-cleavage was 1.02.
For U46G G47A, the self-cleavage came out at 1.02.
Consider G47A, for which the self-cleavage was determined as 1.
G47U: the self-cleavage came out at 1.
The result for G47C reads 1; that for G47A U55G, 0.91; that for G47A U55C, 0.966.
The result for G47U U49G reads 0.989; that for G47U G65C, 0.736.
On to G47U G50C, for which the self-cleavage came to 1.
For G47U G50A, the self-cleavage worked out at 1.01.
As for G47U U61G, the figure is 0.906; as for G47U U61A, 0.984; as for G47U U67C, 1.
As to G47U C66G, the self-cleavage stood at 0.914.
Turning to G47U C66A, the self-cleavage is 0.933.
On to G47U C66U, for which the self-cleavage worked out at 1.02.
With G47A U61C, the self-cleavage is 0.887.
In the case of G47A U61G, the self-cleavage is 0.968.
Regarding G48U U55G, the self-cleavage was determined as 0.968.
Take G48U U55C: the self-cleavage worked out at 0.977.
As for U46G U53A, the self-cleavage was found to be 1.01.
Consider U46G U53G, for which the self-cleavage came to 0.918.
The result for U46G U53C reads 0.978; that for G48C A59C, 0.797.
Turning to G48C A59G, the self-cleavage was 0.989.
As for G48A G68C, the self-cleavage was 0.98.
For the variant G48U G50A, the self-cleavage is 1.03.
As for G48U G50C, the figure is 1.01; as for G48U G50U, 0.99.
On to G47U A60G, for which the self-cleavage was found to be 0.912.
In the case of G47U A60C, the self-cleavage stood at 0.386.
As for G47U A60U, the self-cleavage was 0.552.
As for G48C U67A, the figure is 1.01.
For the variant G48C U67G, the self-cleavage came to 1.04.
In the case of G48C U67C, the self-cleavage is 0.998.
For U46C U69C, the self-cleavage was 1.06.
The result for U46C U69G reads 1.05; that for G47A G50U, 1.01.
The result for G48A A59G reads 1.05; that for G48A A59U, 0.817.
Consider G48A A59C, for which the self-cleavage came out at 0.83.
For G47A C54A, the self-cleavage was 0.961.
The result for G47A C54G reads 0.979; that for G48A C66U, 0.99.
G48A C66G: the self-cleavage was found to be 0.942.
As for G48A C66A, the figure is 0.877; as for G47C U55C, 0.943.
As for G47A U53C, the self-cleavage was determined as 0.978.
As for G47A U53G, the figure is 0.971; as for G47A U53A, 1.02; as for U46G U67A, 0.99.
Turning to U46G U67G, the self-cleavage amounted to 0.995.
Regarding G47C U64G, the self-cleavage turned out to be 0.938.
The result for G47C U64A reads 0.979.
Turning to G47C U69C, the self-cleavage is 1.06.
Regarding G48U G68C, the self-cleavage came out at 1.05.
The result for G48U G68U reads 1.04; that for G48U G68A, 1.04.
For the variant U46G A60U, the self-cleavage is 0.413.
With U46G A60G, the self-cleavage came to 0.952.
Turning to U46G A60C, the self-cleavage turned out to be 0.413.
The result for G48C U69C reads 1.06; that for G48A, 1; that for G48U, 0.999.
Regarding G48C, the self-cleavage worked out at 0.999.
Take G48C G56A: the self-cleavage was 0.988.
With G48C G56C, the self-cleavage was found to be 0.778.
Regarding U46G U61A, the self-cleavage was found to be 0.958.
For the variant U46G U61G, the self-cleavage is 0.878.
Turning to U46G U61C, the self-cleavage worked out at 0.941.
As to G47A C63A, the self-cleavage is 0.898.
Turning to U46G C57U, the self-cleavage turned out to be 0.391.
Consider U46G C57A, for which the self-cleavage came out at 0.354.
The result for U46G C57G reads 0.303.
As for U46G G58U, the self-cleavage is 0.955.
G47C G68A: the self-cleavage was found to be 1.
Take G47C G68C: the self-cleavage came to 1.02.
For the variant G47C G68U, the self-cleavage was 0.994.
For the variant U49A C54A, the self-cleavage turned out to be 0.641.
Take U49A C54U: the self-cleavage is 0.995.
U49A C54G: the self-cleavage was determined as 0.947.
As for U46G A51C, the figure is 0.949; as for U46G A51G, 0.618.
As for U46G A51U, the figure is 1.
